Experimental data reported in the supplement of paper PMC9112550, “Optimization of the antimicrobial peptide Bac7 by deep mutational scanning” (BMC Biology, 2022).

Test system: Escherichia coli TOP10
Assay: shrunken log2 fold change of peptide-encoding DNA abundance (4.5 h post-induction vs induction); higher = less antimicrobial activity (less host growth inhibition)
Conditions: time post-induction: 4.5 h; library: site-saturation at positions 5, 18, 19, 20
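Further: peptides expressed intracellularly from a pBAD plasmid library in pooled LB shake-flask culture, induced with 0.3% L-arabinose, DNA abundance read by NGS, three biological replicates, DESeq2 with apeglm shrinkage.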

Sequence | shrunken log2 fold change
RRIRNRPPRLPRPRPRPFADPRP | 0.0675
RRIRCRPPRLPRPRPRPASMPRP | -0.412
RRIRKRPPRLPRPRPRPQQHPRP | 0.138
RRIRMRPPRLPRPRPRPMKRPRP | 0.573
RRIRYRPPRLPRPRPRPGHCPRP | -0.0945
RRIRFRPPRLPRPRPRPPEQPRP | -0.0209
RRIRNRPPRLPRPRPRPYEYPRP | -0.675
RRIRKRPPRLPRPRPRPQLTPRP | 0.14
RRIRTRPPRLPRPRPRPRFLPRP | 0.903
RRIRWRPPRLPRPRPRPCIMPRP | -0.339
RRIRYRPPRLPRPRPRPLKTPRP | 0.0308
RRIRKRPPRLPRPRPRPWLKPRP | 0.0705
RRIRARPPRLPRPRPRPARRPRP | 0.388
RRIRGRPPRLPRPRPRPWECPRP | -0.00149
RRIRWRPPRLPRPRPRPNLLPRP | 0.0966
RRIRHRPPRLPRPRPRPTCRPRP | -0.232
RRIRRRPPRLPRPRPRPHNEPRP | -0.0783
RRIRERPPRLPRPRPRPELEPRP | 0.276
RRIRWRPPRLPRPRPRPAEMPRP | 0.213
RRIRERPPRLPRPRPRPYKGPRP | -0.0341

Sequence | shrunken log2 fold change
RRIRRRPPRLPRPRPRPMSKPRP | 0.404
RRIRGRPPRLPRPRPRPSTKPRP | 0.261
RRIRQRPPRLPRPRPRPCAMPRP | -0.0872
RRIRDRPPRLPRPRPRPTSRPRP | 0.208
RRIRCRPPRLPRPRPRPKSYPRP | -0.443
RRIRKRPPRLPRPRPRPVCCPRP | 0.517
RRIRTRPPRLPRPRPRPRYMPRP | -0.62
RRIRIRPPRLPRPRPRPYSMPRP | -0.436
RRIRERPPRLPRPRPRPPCWPRP | 0.0636
RRIRKRPPRLPRPRPRPGYYPRP | -0.0439
RRIRNRPPRLPRPRPRPQLPPRP | -0.352
RRIRTRPPRLPRPRPRPFLQPRP | 0.0237
RRIRHRPPRLPRPRPRPVSVPRP | -0.225
RRIRCRPPRLPRPRPRPTKHPRP | 0.00206
RRIRIRPPRLPRPRPRPGAHPRP | -0.0753
RRIRLRPPRLPRPRPRPIGSPRP | -0.0107
RRIRNRPPRLPRPRPRPFPNPRP | -0.33
RRIRVRPPRLPRPRPRPKEKPRP | -0.0337
RRIRWRPPRLPRPRPRPCRQPRP | -0.134
RRIRQRPPRLPRPRPRPDNCPRP | 0.0333

Sequence | shrunken log2 fold change
RRIRNRPPRLPRPRPRPSYQPRP | -0.75
RRIRVRPPRLPRPRPRPGESPRP | 0.0694
RRIRYRPPRLPRPRPRPMTGPRP | 0.0192
RRIRCRPPRLPRPRPRPRMSPRP | 0.041
RRIRKRPPRLPRPRPRPHSIPRP | 0.124
RRIRKRPPRLPRPRPRPFVDPRP | -0.0489
RRIRERPPRLPRPRPRPHGRPRP | 0.0279
RRIRNRPPRLPRPRPRPNFYPRP | -0.225
RRIRNRPPRLPRPRPRPHVWPRP | 0.0415
RRIRLRPPRLPRPRPRPDLCPRP | 0.307
RRIRHRPPRLPRPRPRPGCFPRP | -0.181
RRIRWRPPRLPRPRPRPQTPPRP | 1.07
RRIRFRPPRLPRPRPRPSCKPRP | -0.901
RRIRWRPPRLPRPRPRPPRPPRP | 0.859
RRIRVRPPRLPRPRPRPQISPRP | -0.0989
RRIRIRPPRLPRPRPRPEMHPRP | -0.328
RRIRCRPPRLPRPRPRPEKAPRP | 0.0655
RRIRSRPPRLPRPRPRPWVYPRP | -0.14
RRIRGRPPRLPRPRPRPSMLPRP | 0.58
RRIRFRPPRLPRPRPRPCVHPRP | 0.00355
